Test results: doi:10.1101/2021.05.17.443621 (bioRxiv, 2021)

Target: T1, Stt3p (yeast (endogenous), UniProt P39007 1-718, N-glycan at N539)
T1 sequence (looked up): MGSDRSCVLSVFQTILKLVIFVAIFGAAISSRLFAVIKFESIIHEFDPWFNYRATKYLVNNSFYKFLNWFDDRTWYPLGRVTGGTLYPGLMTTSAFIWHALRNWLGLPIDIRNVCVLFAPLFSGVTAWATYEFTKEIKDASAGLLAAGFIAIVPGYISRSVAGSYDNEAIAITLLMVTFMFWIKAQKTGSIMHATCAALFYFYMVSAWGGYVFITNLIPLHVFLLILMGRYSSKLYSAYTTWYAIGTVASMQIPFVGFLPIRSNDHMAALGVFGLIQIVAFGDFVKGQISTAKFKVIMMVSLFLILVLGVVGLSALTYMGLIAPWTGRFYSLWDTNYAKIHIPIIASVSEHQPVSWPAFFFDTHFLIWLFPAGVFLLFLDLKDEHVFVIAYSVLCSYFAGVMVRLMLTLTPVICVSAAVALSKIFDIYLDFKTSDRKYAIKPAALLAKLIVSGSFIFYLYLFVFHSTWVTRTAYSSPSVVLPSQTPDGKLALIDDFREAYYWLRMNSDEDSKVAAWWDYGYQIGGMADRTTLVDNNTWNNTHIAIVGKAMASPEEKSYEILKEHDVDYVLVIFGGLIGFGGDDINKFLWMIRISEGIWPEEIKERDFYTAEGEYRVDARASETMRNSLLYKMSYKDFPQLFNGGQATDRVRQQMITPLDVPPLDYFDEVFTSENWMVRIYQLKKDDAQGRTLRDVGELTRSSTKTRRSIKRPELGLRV
Assay: cryo-EM structure

- binding result: binds
B1: Ost6p (natural protein, yeast, UniProt Q03723 25-332, looked up)
chain: TASHNIDDILQLKDDTGVITVTADNYPLLSRGVPGYFNILYITMRGTNSNGMSCQLCHDFEKTYHAVADVIRSQAPQSLNLFFTVDVNEVPQLVKDLKLQNVPHLVVYPPAESNKQSQFEWKTSPFYQYSLVPENAENTLQFGDFLAKILNISITVPQAFNVQEFVYYFVACMVVFIFIKKVILPKVTNKWKLFSMILSLGILLPSITGYKFVEMNAIPFIARDAKNRIMYFSGGSGWQFGIEIFSVSLMYIVMSALSVLLIYVPKISCVSEKMRGLLSSFLACVLFYFFSYFISCYLIKNPGYPIVF
